{"source": "paper PMC12747378", "about": "“FtsZ phosphorylation modulates tail-core binding to tune cell division in Bacillus subtilis” (PLOS One, 2025)", "binders": {"B1": {"name": "MinCN, the 92aa N-terminal domain of MinC (domain or fragment, Bacillus subtilis, UniProt Q01463 1-92, looked up)", "chain": "MKTKKQQYVTIKGTKNGLTLHLDDACSFDELLDGLQNMLSIEQYTDGKGQKISVHVKLGNRFLYKEQEEQLTELIASKKDLFVHSIDSEVIT", "notes": "MinC, Bacillus subtilis, N-terminal domain, 92 aa; amplified from B. subtilis genomic DNA; Cloned in pGEX-6P-1 with a PreScission site; cleavage of GST not described; source: E. coli BL21 Star (DE3), purified"}, "B2": {"name": "Full-length FtsZ (wild type) (natural protein, Bacillus subtilis, UniProt P17865 1-382, looked up)", "chain": "MLEFETNIDGLASIKVIGVGGGGNNAVNRMIENEVQGVEYIAVNTDAQALNLSKAEVKMQIGAKLTRGLGAGANPEVGKKAAEESKEQIEEALKGADMVFVTAGMGGGTGTGAAPVIAQIAKDLGALTVGVVTRPFTFEGRKRQLQAAGGISAMKEAVDTLIVIPNDRILEIVDKNTPMLEAFREADNVLRQGVQGISDLIATPGLINLDFADVKTIMSNKGSALMGIGIATGENRAAEAAKKAISSPLLEAAIDGAQGVLMNITGGTNLSLYEVQEAADIVASASDQDVNMIFGSVINENLKDEIVVTVIATGFIEQEKDVTKPQRPSLNQSIKTHNQSVPKREPKREEPQQQNTVSRHTSQPADDTLDIPTFLRNRNKRG"}, "B3": {"name": "Full-length FtsZ S333A (natural protein, Bacillus subtilis, UniProt P17865 1-382, looked up)", "chain": "B2 chain with S333A"}, "B4": {"name": "Full-length FtsZ S333E (natural protein, Bacillus subtilis, UniProt P17865 1-382, looked up)", "chain": "B2 chain with S333E"}, "B5": {"name": "FtsZ tail (residues 316-382) (domain or fragment, Bacillus subtilis, UniProt P17865 316-382, looked up)", "chain": "IEQEKDVTKPQRPSLNQSIKTHNQSVPKREPKREEPQQQNTVSRHTSQPADDTLDIPTFLRNRNKRG", "notes": "FtsZ, Bacillus subtilis, C-terminal tail, residues 316-382 (67 aa); Cloned in pGEX-6P-3 with a PreScission site; also called C-terminal tail; CTT; source: E. coli BL21 Star (DE3), purified; 15N-labelled in M9 minimal medium for NMR"}, "B6": {"name": "FtsZ tail (residues 316-382) I334E (domain or fragment, Bacillus subtilis, UniProt P17865 316-382, looked up)", "chain": "B5 chain with I19E", "notes": "FtsZ, Bacillus subtilis, C-terminal tail, residues 316-382, I334E; pGEX-6P-3 with PreScission site; cleavage of GST not described; also called I334E tail mutant; source: E. coli BL21 Star (DE3), purified"}, "B7": {"name": "FtsZ tail (residues 316-382) K335A/H337A (domain or fragment, Bacillus subtilis, UniProt P17865 316-382, looked up)", "chain": "B5 chain with K20A, H22A", "notes": "FtsZ, Bacillus subtilis, C-terminal tail, residues 316-382, K335A/H337A; pGEX-6P-3 with PreScission site; cleavage of GST not described; also called K335A/H337A tail double mutant; source: E. coli BL21 Star (DE3), purified"}, "B8": {"name": "FtsZ tail (residues 316-382) S333A (domain or fragment, Bacillus subtilis, UniProt P17865 316-382, looked up)", "chain": "B5 chain with S18A", "notes": "FtsZ, Bacillus subtilis, C-terminal tail, residues 316-382, S333A; pGEX-6P-3 with PreScission site; cleavage of GST not described; also called S333A tail variant; source: E. coli BL21 Star (DE3), purified"}, "B9": {"name": "FtsZ tail (residues 316-382) S333E (domain or fragment, Bacillus subtilis, UniProt P17865 316-382, looked up)", "chain": "B5 chain with S18E", "notes": "FtsZ, Bacillus subtilis, C-terminal tail, residues 316-382, S333E; pGEX-6P-3 with PreScission site; cleavage of GST not described; also called S333E tail variant; source: E. coli BL21 Star (DE3), purified"}, "B10": {"name": "FtsZ tail (residues 316-382), wild type (domain or fragment, Bacillus subtilis, UniProt P17865 316-382, looked up)", "chain": "B5 chain", "notes": "FtsZ of Bacillus subtilis, C-terminal tail, residues 316-382; Cloned into pGEX-6P-3 with a PreScission site; also called FtsZ Tail WT; C-terminal tail; source: E. coli One Shot BL21 Star (DE3), purified"}}, "key": {"[1]": {"target": "T1, FtsZ core (residues 1-315), wild type (Bacillus subtilis, UniProt P17865 1-315)", "T1 construct": "FtsZ of Bacillus subtilis, globular core, residues 1-315; The plasmid paragraph names 'full-length B. subtilis FtsZ and variants' in pET-28a (His6, TEV site); also called FtsZ Core WT; tailless core; source: E. coli One Shot BL21 Star (DE3), purified (TALON resin, eluted with AcTEV protease); not shown: His6, N-terminal, cleaved", "T1 sequence (looked up)": "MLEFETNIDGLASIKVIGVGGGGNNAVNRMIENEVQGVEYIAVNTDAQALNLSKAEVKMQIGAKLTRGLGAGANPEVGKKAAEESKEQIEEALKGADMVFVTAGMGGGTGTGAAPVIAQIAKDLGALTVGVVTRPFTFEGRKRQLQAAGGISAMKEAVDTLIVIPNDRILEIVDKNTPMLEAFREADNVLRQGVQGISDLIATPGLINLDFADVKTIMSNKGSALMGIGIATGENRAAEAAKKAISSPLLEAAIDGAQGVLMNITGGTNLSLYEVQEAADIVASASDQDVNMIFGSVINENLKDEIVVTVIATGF", "assay": "ITC; 5 µM full-length FtsZ or FtsZ core in the cell, 50 µM FtsZ tail or MinCN in the syringe; TKEG buffer (50 mM Tris pH 8, 50 mM KCl, 1 mM EDTA, 5% glycerol), 25°C; 20 injections of 2 µL; each replicate fitted"}, "[2]": {"target": "T2, FtsZ core (residues 1-315) (Bacillus subtilis, UniProt P17865 1-315)", "T2 construct": "FtsZ, Bacillus subtilis, globular core, residues 1-315; The printed purification is TALON resin with elution by AcTEV protease; also called FtsZ globular core; tailless core; source: E. coli BL21 Star (DE3), purified", "T2 sequence (looked up)": "T1 sequence (looked up)", "assay": "ITC; full-length FtsZ or FtsZ core (5 µM) in the cell, FtsZ tail or MinCN (50 µM) in the syringe; TKEG buffer (50 mM Tris pH 8, 50 mM KCl, 1 mM EDTA, 5% glycerol), 25°C; one-site model", "settings": "both partners purified"}, "[3]": {"target": "B2", "assay": "ITC; full-length FtsZ or FtsZ core (5 µM) in the cell, FtsZ tail or MinCN (50 µM) in the syringe; TKEG buffer (50 mM Tris pH 8, 50 mM KCl, 1 mM EDTA, 5% glycerol), 25°C; one-site model", "settings": "both partners purified"}, "[4]": {"target": "the molecule itself", "assay": "cell-based or functional assay"}, "[5]": {"target": "T3, FtsZ core (residues 1-315) D210A/D213A (Bacillus subtilis, UniProt P17865 1-315, D210A | D213A)", "T3 construct": "FtsZ, Bacillus subtilis, globular core, residues 1-315, D210A/D213A; see S1 Appendix; also called acidic patch mutant core; source: E. coli BL21 Star (DE3), purified", "T3 sequence (looked up)": "T1 sequence (looked up) with D210A, D213A", "assay": "ITC; full-length FtsZ or FtsZ core (5 µM) in the cell, FtsZ tail or MinCN (50 µM) in the syringe; TKEG buffer (50 mM Tris pH 8, 50 mM KCl, 1 mM EDTA, 5% glycerol), 25°C; one-site model", "settings": "both partners purified"}, "[6]": {"target": "T2, FtsZ core (residues 1-315)", "assay": "ITC; displacement: pre-formed MinCN:Core complex (45 µM MinCN + 5 µM Core, 9:1) in the cell, Tail titrated to 10 µM final; TKEG buffer, 25°C", "settings": "both partners purified"}, "[7]": {"target": "T1, FtsZ core (residues 1-315), wild type", "assay": "ITC; competition: FtsZ tail titrated into a pre-formed MinCN:Core complex (45 µM MinCN + 5 µM Core, 9:1, ~99% occupancy); TKEG buffer, 25°C", "settings": "both partners purified"}, "[8]": {"target": "T4, FtsZ core (residues 1-315) M292H/I293W/F294K (Bacillus subtilis, UniProt P17865 1-315, M292H | I293W | F294K)", "T4 construct": "FtsZ of Bacillus subtilis, globular core, residues 1-315, M292H/I293W/F294K; Vector and tag as for 'FtsZ and variants'; also called FtsZ Core HWK; MIF pocket triple mutant; source: E. coli One Shot BL21 Star (DE3), purified (TALON resin, eluted with AcTEV protease); not shown: His6, N-terminal, cleaved", "T4 sequence (looked up)": "T1 sequence (looked up) with M292H, I293W, F294K", "assay": "ITC; 5 µM full-length FtsZ or FtsZ core in the cell, 50 µM FtsZ tail or MinCN in the syringe; TKEG buffer (50 mM Tris pH 8, 50 mM KCl, 1 mM EDTA, 5% glycerol), 25°C; 20 injections of 2 µL; each replicate fitted", "settings": "both partners purified"}, "[9]": {"target": "T5, FtsZ core (residues 1-315) D210A/D213A (Bacillus subtilis, UniProt P17865 1-315, D210A | D213A)", "T5 construct": "FtsZ of Bacillus subtilis, globular core, residues 1-315, D210A/D213A; The sheet's label 'AA' is tied to D210A/D213A by the mean Kd (500.6 nM); Vector and tag as for 'FtsZ and variants'; also called FtsZ Core AA; acidic patch mutant; source: E. coli One Shot BL21 Star (DE3), purified (TALON resin, eluted with AcTEV protease); not shown: His6, N-terminal, cleaved", "T5 sequence (looked up)": "T1 sequence (looked up) with D210A, D213A", "assay": "ITC; 5 µM full-length FtsZ or FtsZ core in the cell, 50 µM FtsZ tail or MinCN in the syringe; TKEG buffer (50 mM Tris pH 8, 50 mM KCl, 1 mM EDTA, 5% glycerol), 25°C; 20 injections of 2 µL; each replicate fitted", "settings": "both partners purified"}}, "note": "Numbering of substitutions follows the chain as printed. In names and notes the source's numbering stands. Several values for one entry are separate records, joined by “and”; a condition that tells them apart may be missing. Equal entries are not always repeated. Where two headings read alike, the source gives them in different places.", "data": [{"binder": "B1", "values": [{"measurement": "Kd", "setting": "[1]", "value": "418 nM and 447 nM and 621 nM"}, {"measurement": "stoichiometry N", "setting": "[1]", "value": "1.11 and 0.829 and 1.07"}, {"measurement": "Kd", "setting": "[2]", "value": "495 nM and 405 nM"}, {"measurement": "stoichiometry N", "setting": "[2]", "value": "1 ± 0.15"}, {"measurement": "Kd", "setting": "[3]", "value": "> 2000", "unit": "nM"}]}, {"binder": "B2", "values": [{"measurement": "critical concentration for polymerization (x-intercept of malachite green GTPase rate against FtsZ concentration)", "setting": "[4]", "value": 0.51, "unit": "µM"}, {"measurement": "specific GTPase activity above the critical concentration (malachite green assay)", "setting": "[4]", "value": 4, "unit": "GTP/min/FtsZ"}]}, {"binder": "B3", "values": [{"measurement": "critical concentration for polymerization (x-intercept of malachite green GTPase rate against FtsZ concentration)", "setting": "[4]", "value": 0.41, "unit": "µM"}, {"measurement": "specific GTPase activity above the critical concentration (malachite green assay)", "setting": "[4]", "value": 4.7, "unit": "GTP/min/FtsZ"}]}, {"binder": "B4", "values": [{"measurement": "critical concentration for polymerization (x-intercept of malachite green GTPase rate against FtsZ concentration)", "setting": "[4]", "value": 0.37, "unit": "µM"}, {"measurement": "specific GTPase activity above the critical concentration (malachite green assay)", "setting": "[4]", "value": 5.1, "unit": "GTP/min/FtsZ"}]}, {"binder": "B5", "values": [{"measurement": "Kd", "setting": "[2]", "value": "228 ± 24", "unit": "nM"}, {"measurement": "Kd", "setting": "[5]", "value": "501 ± 64", "unit": "nM"}, {"measurement": "Kd", "setting": "[3]", "value": "> 2000", "unit": "nM"}, {"measurement": "stoichiometry N", "setting": "[6]", "value": 1}]}, {"binder": "B6", "values": [{"measurement": "Kd", "setting": "[2]", "value": "> 2000", "unit": "nM"}]}, {"binder": "B7", "values": [{"measurement": "Kd", "setting": "[2]", "value": "> 2000", "unit": "nM"}]}, {"binder": "B8", "values": [{"measurement": "Kd", "setting": "[2]", "value": "> 2000", "unit": "nM"}]}, {"binder": "B9", "values": [{"measurement": "Kd", "setting": "[2]", "value": "> 2000", "unit": "nM"}]}, {"binder": "B10", "values": [{"measurement": "stoichiometry N", "setting": "[7]", "value": "1.03 and 0.948 and 0.919 and 0.965"}, {"measurement": "binding result", "setting": "[8]", "value": "binds"}, {"measurement": "Kd", "setting": "[9]", "value": "428 nM and 529 nM and 545 nM"}, {"measurement": "stoichiometry N", "setting": "[9]", "value": "1.18 and 1.24 and 1.1 and 1.17"}, {"measurement": "Kd", "setting": "[1]; both partners purified", "value": "260 nM and 222 nM and 229 nM and 202 nM"}, {"measurement": "stoichiometry N", "setting": "[1]; both partners purified", "value": "1.09 and 1.05 and 1.03 and 1.01"}]}]}
